The values below come from the supplement of paper PMC9112550, “Optimization of the antimicrobial peptide Bac7 by deep mutational scanning” (BMC Biology, 2022).
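Further: peptides expressed intracellularly from a pBAD plasmid library in pooled LB shake-flask culture, induced with 0.3% L-arabinose, DNA abundance read by NGS, three biological replicates, DESeq2 with apeglm shrinkage.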

This data set deals with Escherichia coli TOP10. Nature of the data set: shrunken log2 fold change of peptide-encoding DNA abundance (4.5 h post-induction vs induction); higher = less antimicrobial activity (less host growth inhibition). Conditions: time post-induction: 4.5 h; library: site-saturation at positions 5, 18, 19, 20.
RRIRFRPPRLPRPRPRPSAFPRP: the “shrunken log2 fold change” value was -0.204. For RRIRYRPPRLPRPRPRPNPDPRP, the “shrunken log2 fold change” value was -0.407. The result for RRIRQRPPRLPRPRPRPSHTPRP reads -0.195; that for RRIRSRPPRLPRPRPRPTAKPRP, 0.528. Then RRIRYRPPRLPRPRPRPRPGPRP, with 0.219. Consider RRIRQRPPRLPRPRPRPAYSPRP, for which the “shrunken log2 fold change” value was -0.051. As to RRIRVRPPRLPRPRPRPVTDPRP, the “shrunken log2 fold change” value is -0.171. The result for RRIRERPPRLPRPRPRPPYTPRP reads -0.176; that for RRIRRRPPRLPRPRPRPYQDPRP, 0.00143; that for RRIRWRPPRLPRPRPRPKHHPRP, -0.208. As to RRIRRRPPRLPRPRPRPRMGPRP, the “shrunken log2 fold change” value is 0.136.

As for RRIRARPPRLPRPRPRPDNDPRP, the “shrunken log2 fold change” value was -0.196. Regarding RRIRIRPPRLPRPRPRPHMTPRP, the “shrunken log2 fold change” value is -0.64. Turning to RRIRTRPPRLPRPRPRPSMWPRP, the “shrunken log2 fold change” value turned out to be 0.103. As for RRIRLRPPRLPRPRPRPRFHPRP, the “shrunken log2 fold change” value is -0.208. Consider RRIRSRPPRLPRPRPRPMGCPRP, for which the “shrunken log2 fold change” value is -0.112. As to RRIRIRPPRLPRPRPRPYYLPRP, the “shrunken log2 fold change” value was -0.423. As to RRIRSRPPRLPRPRPRPWTEPRP, the “shrunken log2 fold change” value is -0.314. Take RRIRDRPPRLPRPRPRPNYDPRP: the “shrunken log2 fold change” value is -0.211. RRIRKRPPRLPRPRPRPTWYPRP: the “shrunken log2 fold change” value is -0.0991. With RRIRRRPPRLPRPRPRPCRWPRP, the “shrunken log2 fold change” value was found to be 0.11. The result for RRIRFRPPRLPRPRPRPSTHPRP reads -0.569; that for RRIRLRPPRLPRPRPRPMDVPRP, 0.0104. With RRIRFRPPRLPRPRPRPHVWPRP, the “shrunken log2 fold change” value stood at 0.491.

RRIRSRPPRLPRPRPRPPMRPRP: the “shrunken log2 fold change” value worked out at 1.02. As to RRIRYRPPRLPRPRPRPWFMPRP, the “shrunken log2 fold change” value was -0.356. On to RRIRNRPPRLPRPRPRPWQCPRP, for which the “shrunken log2 fold change” value was -0.108. RRIRNRPPRLPRPRPRPVKPPRP: the “shrunken log2 fold change” value stood at 0.0644. For the sequence RRIRDRPPRLPRPRPRPCDWPRP, the “shrunken log2 fold change” value was found to be 0.0416. On to RRIRTRPPRLPRPRPRPCTYPRP, for which the “shrunken log2 fold change” value is -0.326.

RRIRQRPPRLPRPRPRPHEEPRP: the “shrunken log2 fold change” value is -0.0442.

Turning to RRIRDRPPRLPRPRPRPTKYPRP, the “shrunken log2 fold change” value is -0.286. In the case of RRIRKRPPRLPRPRPRPERSPRP, the “shrunken log2 fold change” value came out at 0.245. The result for RRIRARPPRLPRPRPRPPIQPRP reads 0.431; that for RRIRTRPPRLPRPRPRPYYYPRP, -1.2; that for RRIRQRPPRLPRPRPRPDNTPRP, -0.178. As to RRIRSRPPRLPRPRPRPWSKPRP, the “shrunken log2 fold change” value was -0.405. Then RRIRDRPPRLPRPRPRPKCEPRP, with -0.351; and RRIRWRPPRLPRPRPRPEQRPRP, with 0.248; and RRIRRRPPRLPRPRPRPFHPPRP, with 0.111. For RRIRHRPPRLPRPRPRPKHMPRP, the “shrunken log2 fold change” value is -0.0234. As to RRIRYRPPRLPRPRPRPWYCPRP, the “shrunken log2 fold change” value was -1.12. Consider RRIRVRPPRLPRPRPRPFFCPRP, for which the “shrunken log2 fold change” value was -0.00678. On to RRIRYRPPRLPRPRPRPSYPPRP, for which the “shrunken log2 fold change” value is -0.217. Turning to RRIRNRPPRLPRPRPRPMECPRP, the “shrunken log2 fold change” value is -0.0276. For the sequence RRIRFRPPRLPRPRPRPFHSPRP, the “shrunken log2 fold change” value was -0.0346.

Take RRIRRRPPRLPRPRPRPQDKPRP: the “shrunken log2 fold change” value was -0.289. Take RRIRDRPPRLPRPRPRPRFQPRP: the “shrunken log2 fold change” value was found to be 0.491.

Take RRIRSRPPRLPRPRPRPKWVPRP: the “shrunken log2 fold change” value was -0.209. Take RRIRGRPPRLPRPRPRPQSVPRP: the “shrunken log2 fold change” value was -0.199. As for RRIRIRPPRLPRPRPRPCQCPRP, the “shrunken log2 fold change” value is -1.17.

On to RRIRRRPPRLPRPRPRPQIIPRP, for which the “shrunken log2 fold change” value is -0.0755. Regarding RRIRARPPRLPRPRPRPGKAPRP, the “shrunken log2 fold change” value is 0.266. Turning to RRIRIRPPRLPRPRPRPTINPRP, the “shrunken log2 fold change” value is -0.65.

In the case of RRIRLRPPRLPRPRPRPVCNPRP, the “shrunken log2 fold change” value is -0.0299. For RRIRARPPRLPRPRPRPHPMPRP, the “shrunken log2 fold change” value was -0.026. Then RRIRERPPRLPRPRPRPYAMPRP, with -0.416; and RRIRLRPPRLPRPRPRPPKIPRP, with 0.0251. RRIRIRPPRLPRPRPRPPQIPRP: the “shrunken log2 fold change” value is -0.157. Consider RRIRVRPPRLPRPRPRPHAQPRP, for which the “shrunken log2 fold change” value was -0.224. For RRIRRRPPRLPRPRPRPLIYPRP, the “shrunken log2 fold change” value is 0.431. In the case of RRIRARPPRLPRPRPRPYLNPRP, the “shrunken log2 fold change” value is -0.914. As for RRIRMRPPRLPRPRPRPMHKPRP, the “shrunken log2 fold change” value was 0.413. As to RRIRARPPRLPRPRPRPGQEPRP, the “shrunken log2 fold change” value was 0.0636. As for RRIRERPPRLPRPRPRPLRPPRP, the “shrunken log2 fold change” value was 0.889. The result for RRIRYRPPRLPRPRPRPPDDPRP reads 0.141; that for RRIRRRPPRLPRPRPRPERWPRP, 0.613; that for RRIRERPPRLPRPRPRPTTVPRP, -0.147. As for RRIRPRPPRLPRPRPRPKFTPRP, the “shrunken log2 fold change” value was -0.141. Consider RRIRWRPPRLPRPRPRPAKQPRP, for which the “shrunken log2 fold change” value came to 0.0759. RRIRERPPRLPRPRPRPDAAPRP: the “shrunken log2 fold change” value is 0.635. In the case of RRIRCRPPRLPRPRPRPVMMPRP, the “shrunken log2 fold change” value is -0.214. On to RRIRDRPPRLPRPRPRPDKCPRP, for which the “shrunken log2 fold change” value stood at 0.089. Then RRIRKRPPRLPRPRPRPSQSPRP, with 0.28; and RRIRFRPPRLPRPRPRPHVRPRP, with -0.271. The result for RRIRVRPPRLPRPRPRPEATPRP reads 0.92; that for RRIRQRPPRLPRPRPRPNWFPRP, -0.151. Regarding RRIRQRPPRLPRPRPRPINFPRP, the “shrunken log2 fold change” value was 0.0669. The result for RRIRRRPPRLPRPRPRPWFNPRP reads -0.241; that for RRIRCRPPRLPRPRPRPTHMPRP, -0.173. As for RRIRMRPPRLPRPRPRPFRGPRP, the “shrunken log2 fold change” value was -0.205. In the case of RRIRLRPPRLPRPRPRPWCEPRP, the “shrunken log2 fold change” value is -0.271.

As for RRIRWRPPRLPRPRPRPPMCPRP, the “shrunken log2 fold change” value is 0.252.

As to RRIRTRPPRLPRPRPRPPVRPRP, the “shrunken log2 fold change” value is 0.558.

As to RRIRERPPRLPRPRPRPYIPPRP, the “shrunken log2 fold change” value was -0.416. RRIRQRPPRLPRPRPRPDDHPRP: the “shrunken log2 fold change” value is -0.00211.

Turning to RRIRIRPPRLPRPRPRPMGDPRP, the “shrunken log2 fold change” value is -0.114.

Take RRIRSRPPRLPRPRPRPCILPRP: the “shrunken log2 fold change” value was -0.241. Consider RRIRRRPPRLPRPRPRPVWAPRP, for which the “shrunken log2 fold change” value worked out at 0.339. Then RRIRERPPRLPRPRPRPFTYPRP, with -0.0534. For the sequence RRIRFRPPRLPRPRPRPCSVPRP, the “shrunken log2 fold change” value is -0.338. On to RRIRPRPPRLPRPRPRPKDNPRP, for which the “shrunken log2 fold change” value is -0.248.

As to RRIRARPPRLPRPRPRPDLPPRP, the “shrunken log2 fold change” value was 0.311. For the sequence RRIRMRPPRLPRPRPRPIMEPRP, the “shrunken log2 fold change” value was -0.00133. Take RRIRKRPPRLPRPRPRPASEPRP: the “shrunken log2 fold change” value worked out at 0.879.

RRIRVRPPRLPRPRPRPYVLPRP: the “shrunken log2 fold change” value was -1.12.

On to RRIRTRPPRLPRPRPRPEAEPRP, for which the “shrunken log2 fold change” value was determined as 0.0438. With RRIRGRPPRLPRPRPRPAIMPRP, the “shrunken log2 fold change” value came out at 1.

Turning to RRIRMRPPRLPRPRPRPNHSPRP, the “shrunken log2 fold change” value was -0.38. Take RRIRWRPPRLPRPRPRPTWHPRP: the “shrunken log2 fold change” value stood at 0.0819. As to RRIRGRPPRLPRPRPRPTMYPRP, the “shrunken log2 fold change” value was found to be 0.032. Turning to RRIRPRPPRLPRPRPRPVKRPRP, the “shrunken log2 fold change” value is -0.171. RRIRKRPPRLPRPRPRPEKMPRP: the “shrunken log2 fold change” value was -0.0217. With RRIRARPPRLPRPRPRPNMMPRP, the “shrunken log2 fold change” value is -0.142. On to RRIRTRPPRLPRPRPRPFYSPRP, for which the “shrunken log2 fold change” value is -0.701. For the sequence RRIRCRPPRLPRPRPRPCYRPRP, the “shrunken log2 fold change” value was -0.256.

For the sequence RRIRSRPPRLPRPRPRPKMWPRP, the “shrunken log2 fold change” value is 0.458.

RRIRDRPPRLPRPRPRPYEDPRP: the “shrunken log2 fold change” value was 0.0115. Consider RRIRARPPRLPRPRPRPQYVPRP, for which the “shrunken log2 fold change” value is -0.116. Regarding RRIRRRPPRLPRPRPRPVFHPRP, the “shrunken log2 fold change” value was determined as 0.258.

For RRIRQRPPRLPRPRPRPAAAPRP, the “shrunken log2 fold change” value is 0.258.

For RRIRGRPPRLPRPRPRPVFEPRP, the “shrunken log2 fold change” value turned out to be 1.16. In the case of RRIRCRPPRLPRPRPRPRQNPRP, the “shrunken log2 fold change” value was 0.226. For the sequence RRIRDRPPRLPRPRPRPDMPPRP, the “shrunken log2 fold change” value was -0.0262. As for RRIRQRPPRLPRPRPRPSLVPRP, the “shrunken log2 fold change” value is -0.0806. Then RRIRERPPRLPRPRPRPICMPRP, with -0.309; and RRIRARPPRLPRPRPRPGQHPRP, with -0.0452; and RRIRKRPPRLPRPRPRPGIHPRP, with 0.149.

With RRIRFRPPRLPRPRPRPLQHPRP, the “shrunken log2 fold change” value was -0.134. Turning to RRIRSRPPRLPRPRPRPHDYPRP, the “shrunken log2 fold change” value is 0.0635. On to RRIRFRPPRLPRPRPRPEESPRP, for which the “shrunken log2 fold change” value came out at 0.195. Turning to RRIRNRPPRLPRPRPRPMPYPRP, the “shrunken log2 fold change” value is 0.0291. As to RRIRCRPPRLPRPRPRPKIAPRP, the “shrunken log2 fold change” value came out at 0.0102. Then RRIRRRPPRLPRPRPRPAEGPRP, with -0.0943; and RRIRWRPPRLPRPRPRPHFCPRP, with -0.0299.
